Residue numbers refer to the chain shown, from its start. Numbers in names are those of the source.
T1: Fc fused human IL-18Rα (human, UniProt Q13478 19-329, limits assumed)
T1 construct: also called IL-18Rα monomer; IL-18 receptor alpha; not shown: Fc part
T1 sequence (looked up): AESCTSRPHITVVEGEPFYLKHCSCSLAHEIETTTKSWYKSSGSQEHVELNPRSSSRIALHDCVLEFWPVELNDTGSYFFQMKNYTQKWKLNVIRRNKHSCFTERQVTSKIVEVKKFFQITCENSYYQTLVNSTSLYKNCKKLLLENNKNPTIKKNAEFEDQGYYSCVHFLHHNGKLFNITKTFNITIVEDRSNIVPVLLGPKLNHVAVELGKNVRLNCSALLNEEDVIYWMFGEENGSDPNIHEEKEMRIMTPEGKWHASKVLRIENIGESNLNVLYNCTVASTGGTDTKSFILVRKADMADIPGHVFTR

T2: IL-18Rα/β heterodimer (Fc fused human IL-18Rα mixed and pre-incubated with Fc fused human IL-18Rβ) (human, UniProt Q13478 19-329; O95256 20-356, limits assumed)
T2 construct: 6 µg/mL of each receptor mixed and pre-incubated 30 min before capture on anti-human IgG; also called alpha/beta heterodimer IL-18 receptor; not shown: Fc part
T2 sequence (looked up) 1: T1 sequence (looked up)
T2 sequence (looked up) 2: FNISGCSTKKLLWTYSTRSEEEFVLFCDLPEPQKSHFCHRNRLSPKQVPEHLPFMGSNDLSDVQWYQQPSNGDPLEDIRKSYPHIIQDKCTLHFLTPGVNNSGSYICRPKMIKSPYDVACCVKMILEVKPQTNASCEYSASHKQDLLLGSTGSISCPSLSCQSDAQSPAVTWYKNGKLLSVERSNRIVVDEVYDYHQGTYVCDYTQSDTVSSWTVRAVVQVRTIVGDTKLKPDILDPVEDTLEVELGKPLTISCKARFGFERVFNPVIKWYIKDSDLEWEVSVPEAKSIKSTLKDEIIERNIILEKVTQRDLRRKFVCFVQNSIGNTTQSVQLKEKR

T3: Fc fused human IL-18BP isoform a (IL-18BPa) (human, UniProt O95998 31-194)
T3 construct: also called IL-18BP monomer; not shown: Fc part
T3 sequence (looked up): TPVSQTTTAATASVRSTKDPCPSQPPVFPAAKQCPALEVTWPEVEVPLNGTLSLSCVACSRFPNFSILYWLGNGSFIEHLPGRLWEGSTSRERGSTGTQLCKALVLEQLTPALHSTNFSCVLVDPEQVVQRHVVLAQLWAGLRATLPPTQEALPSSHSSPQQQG

B1: Modified IL-18 polypeptide of SEQ ID NO: 2 (E06K, K53A, S55A) (ligand)
chain: YFGKLKSKLSVIRNLNDQVLFIDQGNRPLFEDMTDSDCRDNAPRTIFIISMYADAQPRGMAVTISVKCEKISTLSCENKIISFKEMNPPDNIKDTKSDIIFFQRSVPGHDNKMQFESSSYEGYFLACEKERDLFKLILKKEDELGDRSIMFTVQNED
B2: Modified IL-18 polypeptide of SEQ ID NO: 71 with a 30 kDa PEG attached at residue C68 (E6K, C38S, K53A, C68-30kDPEG) (ligand)
chain: B1 chain with C38S, A55S
modifications: 30 kDa PEG on Cys 68 (30 kDa DBCO-polyethylene glycol clicked to a bromoacetamido-PEG5-azide linker on the cysteine)
notes: also called 71 + PEG

Experiments:
[1] = biological target: anti-IL18 monoclonal antibody (MBL, cat #D043-3, Clone 25-2G); assay: sandwich ELISA, capture clone 25-2G, detection biotinylated clone 159-12B; without IL-18BP; the signal depends on both antibodies
Procedure: (§1) Immune-related PD effects were determined by analyzing cytokine levels in plasma. The following plasma cytokines were measured: IFNγ, CXCL9, CXCL10, GM-CSF, IL-1a, FasL, and IL-18BP. The activation status of leukocytes was determined by monitoring surface markers: ICOS, PD-1, CD25, CD69, and Fas. Bioanalysis was conducted by detecting the total amount of IL-18 variants (free and IL-18BP-complexed, see FIG. 7). Corning high-binding half-area plates (Fisher Scientific, Reinach, Switzerland) were coated overnight at 4° C. with 25 μl of anti-IL18 monoclonal antibody (MBL, cat #D043-3, Clone 25-2G) at 2 μg/ml in PBS. Plates were then washed four times with 100 μl of PBS-0.02% Tween20. Plates surfaces were blocked with 25 μl of PBS-0.02% Tween20-1% BSA at 37° C. during 1 h. Plates were then washed four times with 100 μl of PBS-0.02% Tween20. Twenty-five microliters of IL-18 variants (or of mouse plasma) were added in […] serial dilutions starting at 50 nM down to 0.02 nM into PBS-0.02% Tween20-0.1% BSA and incubated at 37° C. during 2h. […] Plates were incubated during 2h at 37° C. and were then washed four times with 100 μl of PBS-0.02% Tween20. […] ELISA signal was then measured at 450 nm on an EnSpire plate reader from Perkin Elmer (Schwerzenbach, Switzerland)

Fc fused human IL-18Rα = biological target: T1, Fc fused human IL-18Rα; assay: SPR, Fc-IL-18Rα captured, 1:1 model
Procedure: (§2) The interaction of the wild type and of modified IL-18 polypeptides with human IL-18 receptor subunits were measured with Surface Plasmon Resonance (SPR) technology. Anti-human IgG antibodies were bound by amine coupling onto a CM5 chip to capture 6 μg/mL of Fc fused human IL-18Rα, 6 μg/mL of Fc fused human IL-18Rβ, or 2 μg/mL of Fc fused human IL-18BP isoform a (IL-18BPa) for 30 min before capture. In other settings, 6 μg/mL of alpha and beta IL-18 receptors were mixed and pre-incubated for 30 min before capture of the alpha/beta heterodimer IL-18 receptor.
(§3) The kinetic binding of the IL-18 analytes were measured with a Biacore 8K instrument in two-fold serial dilutions starting at 1 μM down to 0.98 nM. Regeneration of the surface back to amine coupled anti IgG antibody was done after every concentration of analyte. To measure the protein association to the receptors, the samples were injected with a flow rate of 50 μL/min for 60 s, followed by 300 s buffer only to detect the dissociation. The used running buffer was 1×PBS with 0.05% Tween20. The relative response units (RU, Y-axis) are plotted against time (s, X-axis) and analyzed in a kinetic 1:1 binding model for the monomer receptor binding and for the binding to the IL-18BP. A kinetic heterogenous ligand fit model was applied for the alpha/beta heterodimer binding.
Modified IL-18 polypeptides having sequence modifications E06K, K53A, S55A, and T63A maintained binding affinity to IL-18Rα.

[2] = biological target: anti-IL18 monoclonal antibody (MBL, cat #D043-3, Clone 25-2G); assay: sandwich ELISA, capture clone 25-2G, detection biotinylated clone 159-12B; in the presence of IL-18BP (form and concentration not given); the signal depends on both antibodies
Procedure: as §1

[3] = biological target: IL-18R on HEK-Blue IL18R reporter cells (InvivoGen, #hkb-hmil18); assay: cell-based or functional assay
[4] = biological target: T2, IL-18Rα/β heterodimer (Fc fused human …); assay: SPR, Fc-IL-18Rα/Fc-IL-18Rβ mix captured, heterogeneous ligand model
Procedure: as §2, §3
Modified IL-18 polypeptides bearing sequence modifications E06K, K53A, S55A, and T63A maintained binding affinity to IL-18Rα/β heterodimer.

[5] = biological target: T3, Fc fused human IL-18BP isoform a …; assay: SPR, Fc-IL-18BPa captured, 1:1 model
Procedure: as §2, §3
Modified IL-18 polypeptides bearing sequence modifications K53A, S55A, E06K, C38S, C68S, C76S, C127S, and/or K70C maintained binding affinity to IL-18BP.

| Binder | EC50 (read off the curve) [1] | Kd (Fc fused human IL-18Rα) | koff (Fc fused human IL-18Rα) | kon (Fc fused human IL-18Rα) | EC50 (read off the curve) [2] | EC50 (pM), HEK-Blue IL18R reporter assay [3] | Potency loss Mutant/NWT, HEK-Blue IL18R reporter assay [3] | Kd [4] | koff [4] | kon [4] | Kd [5] | koff [5] | kon [5] |
| --- | --- | --- | --- | --- | --- | --- | --- | --- | --- | --- | --- | --- | --- |
| B1 | ~0.2 nM | 2000 nM | 0.0627 s⁻¹ | 31800 M⁻¹ s⁻¹ | ~0.2 nM | 272 pM | 81.8 fold | 1930 nM | 0.0734 s⁻¹ | 39200 M⁻¹ s⁻¹ | – | – | – |
| B2 | – | 682 nM | 0.0217 s⁻¹ | 31800 M⁻¹ s⁻¹ | – | 1.85 pM | 0.56 fold | 23.9 nM | 0.0008 s⁻¹ | 32200 M⁻¹ s⁻¹ | 24.5 nM | 0.0039 s⁻¹ | 158000 M⁻¹ s⁻¹ |

Reference: US20220056091A1 (BRIGHT PEAK THERAPEUTICS, published 2022)
